Test [1] addresses extracellular fragment of FcRn (UniProt P55899). The test is described as follows: BLI; biotinylated FcRn immobilized on Streptavidin (SA) biosensors (Octet Red384); antibodies in solution, 345 to 5.39 nM; PBS-HCl pH 6.0 0.1% Tween-20; at least triplicate.
Test [2] addresses extracellular fragment of FcγRIIb (UniProt P31994). The test is described as follows: BLI; biotinylated FcγR immobilized on Streptavidin (SA) biosensors (Octet Red384); antibodies in solution as serial dilutions; PBS pH 7.4 0.1% BSA 0.1% Tween-20; at least triplicate.
The target of test [3] is extracellular fragment of FcγRIIa (131R). The description is as above.
Test [4] has as its target extracellular fragment of FcγRIa (UniProt P12314). The test is described as above.
Test [5] deals with extracellular fragment of FcγRIIIa (158F) (UniProt P08637). The description is as above.
Chain of extracellular fragment of FcγRIIIa (158F) (P08637 17-208): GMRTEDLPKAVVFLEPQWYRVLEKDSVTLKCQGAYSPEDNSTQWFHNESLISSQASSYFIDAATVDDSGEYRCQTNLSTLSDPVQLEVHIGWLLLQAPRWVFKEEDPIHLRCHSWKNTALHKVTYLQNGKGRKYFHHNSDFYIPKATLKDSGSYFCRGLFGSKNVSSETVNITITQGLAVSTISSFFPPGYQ
Test [6] addresses extracellular fragment of FcγRIIIa (158V). The description is as above.
Test [7] deals with extracellular fragment of FcγRIIa (131H) (UniProt P12318). The test is described as above.
Chain of extracellular fragment of FcγRIIa (131H) (P12318 34-217): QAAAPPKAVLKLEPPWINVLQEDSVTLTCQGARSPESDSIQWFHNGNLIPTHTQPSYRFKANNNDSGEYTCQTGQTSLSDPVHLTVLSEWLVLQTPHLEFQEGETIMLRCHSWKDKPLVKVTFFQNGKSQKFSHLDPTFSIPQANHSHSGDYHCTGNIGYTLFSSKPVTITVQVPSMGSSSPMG
The target of test [8] is T1, extracellular domain of PD-1 receptor (R&D Systems) (Homo sapiens, UniProt Q15116).
T1 construct: Programmed cell death protein 1 (PD-1), extracellular domain; also called Programmed cell death protein 1; source: bought: R&D Systems
T1 sequence (Q15116 25-170): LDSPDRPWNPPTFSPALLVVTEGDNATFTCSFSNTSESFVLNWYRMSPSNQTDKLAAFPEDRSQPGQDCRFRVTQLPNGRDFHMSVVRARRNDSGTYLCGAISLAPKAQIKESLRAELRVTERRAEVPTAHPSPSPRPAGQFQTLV
The test is described as follows: SPR; PD-1 extracellular domain immobilized on a Planar Polyethylene Glycol/Carboxyl Sensor Chip (Reichert4SPR); antibodies in solution, 10; 3.33; 1.11; 0.37; 0.12 nM in PBS 0.02% Tween-20 pH 7.4; multi-step kinetics; triplicate. Conditions: both partners purified.

Chain of extracellular fragment of FcγRIIb (P31994 43-217): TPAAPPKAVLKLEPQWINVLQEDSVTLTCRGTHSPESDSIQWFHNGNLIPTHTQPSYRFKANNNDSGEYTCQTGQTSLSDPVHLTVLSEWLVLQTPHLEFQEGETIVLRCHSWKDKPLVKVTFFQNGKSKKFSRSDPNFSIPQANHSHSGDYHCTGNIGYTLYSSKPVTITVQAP
Chain of extracellular fragment of FcγRIa (P12314 16-292): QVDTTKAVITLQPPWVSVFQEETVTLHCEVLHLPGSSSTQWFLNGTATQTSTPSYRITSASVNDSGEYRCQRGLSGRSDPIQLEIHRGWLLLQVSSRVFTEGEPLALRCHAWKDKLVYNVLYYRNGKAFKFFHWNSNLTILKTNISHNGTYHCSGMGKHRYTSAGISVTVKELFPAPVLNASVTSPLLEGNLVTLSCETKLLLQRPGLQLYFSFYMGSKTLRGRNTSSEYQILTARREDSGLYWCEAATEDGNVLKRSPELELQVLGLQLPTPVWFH
Chain of extracellular fragment of FcRn (P55899 24-297): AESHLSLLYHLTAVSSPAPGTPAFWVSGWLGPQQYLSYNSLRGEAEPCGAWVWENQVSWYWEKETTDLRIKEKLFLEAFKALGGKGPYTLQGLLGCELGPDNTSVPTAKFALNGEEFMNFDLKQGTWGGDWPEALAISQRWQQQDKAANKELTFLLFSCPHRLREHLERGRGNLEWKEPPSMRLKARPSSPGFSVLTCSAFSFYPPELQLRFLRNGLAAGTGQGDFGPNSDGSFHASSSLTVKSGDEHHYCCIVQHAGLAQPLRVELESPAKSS

Regarding Nivolumab (antibody), the Kd (in general, the free concentration of one partner at which half of the binding sites on the other are occupied at equilibrium, for simple one-to-one binding) worked out at 0.0248 µM in test [1]; 0.93 µM in test [2]; 2 µM in test [3]; 0.074 µM in test [4]; 16.6 µM in test [5]; 8.97 µM in test [6]. Besides, the Kd in test [7] amounted to 13.1 µM.
In the case of Pembrolizumab (antibody), the Kd in test [3] was found to be 5.17 µM; in test [6] it was 5.24 µM.

B1: Prolgolimab (antibody, V domains shown)
VH: QVQLVQSGGGLVQPGGSLRLSCAASGFTFSSYWMYWVRQVPGKGLEWVSAIDTGGGRTYYADSVKGRFAISRVNAKNTMYLQMNSLRAEDTAVYYCARDEGGGTGWGVLKDWPYGLDAWGQGTLVTVSS
VL: QPVLTQPLSVSVALGQTARITCGGNNIGSKNVHWYQQKPGQAPVLVIYRDSNRPSGIPERFSGSNSGNTATLTISRAQAGDEADYYCQVWDSSTAVFGTGTKLTVL
For the molecule B1, the Kd worked out at 0.0153 µM in test [1]; 21 µM in test [2]; 9.66 µM in test [3]; 0.9 µM in test [4]; 12.7 µM in test [5]; 1.33 µM in test [6]. Further, the Kd in test [7] came out at 14.6 µM.

B2: Pembrolizumab (antibody, V domains shown)
VH: QVQLVQSGVEVKKPGASVKVSCKASGYTFTNYYMYWVRQAPGQGLEWMGGINPSNGGTNFNEKFKNRVTLTTDSSTTTAYMELKSLQFDDTAVYYCARRDYRFDMGFDYWGQGTTVTVSS
VL: EIVLTQSPATLSLSPGERATLSCRASKGVSTSGYSYLHWYQQKPGQAPRLLIYLASYLESGVPARFSGSGSGTDFTLTISSLEPEDFAVYYCQHSRDLPLTFGGGTKVEIK
notes: variable domain of the pembrolizumab heavy chain; constant region of the IgG4 heavy chain; light chain of pembrolizumab; IgG4; Whole therapeutic antibody in all assays; also called anti-PD-1 antibody; IgG4
Turning to B2, the Kd was 0.025 µM in test [1]; 4.7 pM in test [8]; 8.64 µM in test [2]; 0.085 µM in test [4]; 19.9 µM in test [5]; 11.1 µM in test [7].

(Values after PMC11452378 (Scientific Reports, 2024).)
